In test [1] the target is endogenous SRC-2 of mouse E14 ES cells (mouse (endogenous in E14 ES cells), UniProt Q61026 1-1462). Put plainly: co-IP.
Test [2] addresses endogenous SRC-3 of mouse E14 ES cells (mouse (endogenous in E14 ES cells), UniProt O09000 1-1398). The test can be described thus: co-IP.

Chain of endogenous SRC-3 of mouse E14 ES cells (O09000 whole entry): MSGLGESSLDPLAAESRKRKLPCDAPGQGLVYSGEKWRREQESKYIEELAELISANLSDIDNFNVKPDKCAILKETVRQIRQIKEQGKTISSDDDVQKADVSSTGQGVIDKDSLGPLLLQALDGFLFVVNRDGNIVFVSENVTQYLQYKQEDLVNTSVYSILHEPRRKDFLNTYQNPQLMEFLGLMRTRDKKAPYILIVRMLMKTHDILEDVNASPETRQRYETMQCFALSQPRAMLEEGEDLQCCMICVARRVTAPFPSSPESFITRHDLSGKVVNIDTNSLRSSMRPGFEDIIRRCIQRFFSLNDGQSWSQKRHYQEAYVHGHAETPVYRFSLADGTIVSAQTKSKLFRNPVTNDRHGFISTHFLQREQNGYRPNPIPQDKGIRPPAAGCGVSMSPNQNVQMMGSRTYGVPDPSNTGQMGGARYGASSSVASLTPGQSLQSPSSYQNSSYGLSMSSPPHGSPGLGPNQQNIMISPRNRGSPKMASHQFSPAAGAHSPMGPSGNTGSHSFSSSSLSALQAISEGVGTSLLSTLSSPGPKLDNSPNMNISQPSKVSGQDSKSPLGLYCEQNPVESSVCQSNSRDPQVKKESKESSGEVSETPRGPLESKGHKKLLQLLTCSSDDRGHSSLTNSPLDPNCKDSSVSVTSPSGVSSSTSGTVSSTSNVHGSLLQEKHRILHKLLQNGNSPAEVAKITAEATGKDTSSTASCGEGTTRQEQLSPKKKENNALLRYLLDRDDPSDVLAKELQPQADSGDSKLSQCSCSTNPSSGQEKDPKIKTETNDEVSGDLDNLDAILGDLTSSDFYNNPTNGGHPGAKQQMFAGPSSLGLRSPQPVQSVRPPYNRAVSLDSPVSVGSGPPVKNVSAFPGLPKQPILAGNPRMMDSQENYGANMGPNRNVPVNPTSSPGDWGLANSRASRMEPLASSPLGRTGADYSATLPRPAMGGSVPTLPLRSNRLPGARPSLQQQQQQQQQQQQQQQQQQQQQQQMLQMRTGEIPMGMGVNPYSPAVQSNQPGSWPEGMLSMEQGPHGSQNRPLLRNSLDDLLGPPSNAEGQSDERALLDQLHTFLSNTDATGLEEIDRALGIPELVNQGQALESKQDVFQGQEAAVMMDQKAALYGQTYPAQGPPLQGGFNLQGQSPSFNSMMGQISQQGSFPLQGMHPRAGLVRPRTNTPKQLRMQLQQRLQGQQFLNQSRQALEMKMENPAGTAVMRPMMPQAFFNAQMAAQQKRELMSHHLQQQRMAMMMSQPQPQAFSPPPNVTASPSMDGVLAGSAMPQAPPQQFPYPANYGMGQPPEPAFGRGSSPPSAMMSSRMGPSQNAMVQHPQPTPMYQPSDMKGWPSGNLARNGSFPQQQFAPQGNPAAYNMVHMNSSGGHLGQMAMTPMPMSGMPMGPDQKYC
Chain of endogenous SRC-2 of mouse E14 ES cells (Q61026 whole entry): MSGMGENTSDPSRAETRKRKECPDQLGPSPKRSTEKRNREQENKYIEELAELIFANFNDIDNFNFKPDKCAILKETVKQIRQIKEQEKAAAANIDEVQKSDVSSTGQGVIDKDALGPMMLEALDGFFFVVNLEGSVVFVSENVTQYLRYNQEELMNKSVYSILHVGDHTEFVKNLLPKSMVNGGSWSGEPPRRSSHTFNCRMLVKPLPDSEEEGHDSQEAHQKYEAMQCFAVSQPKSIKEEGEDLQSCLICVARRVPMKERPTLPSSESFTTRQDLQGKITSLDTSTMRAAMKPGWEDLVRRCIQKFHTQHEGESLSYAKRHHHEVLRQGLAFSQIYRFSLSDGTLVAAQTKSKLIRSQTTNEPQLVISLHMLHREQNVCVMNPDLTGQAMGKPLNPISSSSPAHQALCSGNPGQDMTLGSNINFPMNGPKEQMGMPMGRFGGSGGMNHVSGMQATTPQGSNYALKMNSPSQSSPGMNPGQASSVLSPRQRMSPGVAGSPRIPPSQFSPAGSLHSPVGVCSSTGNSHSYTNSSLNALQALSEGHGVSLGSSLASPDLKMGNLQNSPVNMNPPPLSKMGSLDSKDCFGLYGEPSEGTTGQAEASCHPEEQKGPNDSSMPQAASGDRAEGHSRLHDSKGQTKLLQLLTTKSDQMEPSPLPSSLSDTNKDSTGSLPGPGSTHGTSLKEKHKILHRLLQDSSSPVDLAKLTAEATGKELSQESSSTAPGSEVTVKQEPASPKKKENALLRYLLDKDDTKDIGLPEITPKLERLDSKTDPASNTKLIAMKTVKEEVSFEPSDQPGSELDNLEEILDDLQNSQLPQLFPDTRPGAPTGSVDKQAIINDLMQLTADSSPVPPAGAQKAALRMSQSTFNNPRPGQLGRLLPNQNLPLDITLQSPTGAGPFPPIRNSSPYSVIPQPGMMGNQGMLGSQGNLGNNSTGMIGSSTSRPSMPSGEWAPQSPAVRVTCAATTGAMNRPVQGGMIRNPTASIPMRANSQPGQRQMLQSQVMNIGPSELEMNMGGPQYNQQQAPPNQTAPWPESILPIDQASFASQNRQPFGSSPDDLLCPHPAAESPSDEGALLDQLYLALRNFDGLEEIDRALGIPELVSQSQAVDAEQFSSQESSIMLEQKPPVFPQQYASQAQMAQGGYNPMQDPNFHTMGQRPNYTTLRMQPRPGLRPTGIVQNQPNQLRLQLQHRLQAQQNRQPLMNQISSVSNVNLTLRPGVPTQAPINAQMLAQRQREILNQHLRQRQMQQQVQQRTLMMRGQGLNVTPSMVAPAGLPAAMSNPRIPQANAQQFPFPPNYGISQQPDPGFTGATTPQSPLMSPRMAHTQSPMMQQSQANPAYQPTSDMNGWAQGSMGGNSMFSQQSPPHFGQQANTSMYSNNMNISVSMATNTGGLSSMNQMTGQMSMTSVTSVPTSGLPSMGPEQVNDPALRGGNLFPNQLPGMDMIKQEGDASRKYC

B1: endogenous Sox2 of mouse E14 ES cells (natural protein)
chain: not shown
In the case of B1, the “fold change of co-precipitated Sox2, TSA plus NAM against untreated cells” value in test [1] worked out at 4.08 fold; in test [2], 7.53 fold.

(Values after publication PMC8668987 (The Journal of Biological Chemistry, 2021).)
